The values that follow come from the supplement of paper PMC10201428.

± gives the standard deviation of the averaged measurements.

Data set [1] has as its system VchCAST RNA-guided transposition machinery (E. coli BL21(DE3) host, lacZ target). Description: relative integration efficiency (T-RL orientation) vs wild-type transposon end (log2 (normalized fold change)); transposon end mutated: left end; higher = more efficient transposition. In short, it runs like this:
(§1)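 Barcoded pools of 1549 left-end or 1849 right-end transposon variants were cloned into a pUC57 mini-transposon donor. Each pool was co-transformed with a T7-driven effector plasmid (CRISPR array, tniQ-cas8-cas7-cas6, tnsA-tnsB-tnsC) into E. coli BL21(DE3) and plated with 0.1 mM IPTG at 37°C for 18 h. Input plasmids and genomic integration junctions were PCR-amplified and Illumina-sequenced, with two biological output replicates and four wild-type barcodes as reference. Relative integration efficiency is output/input barcode abundance fold change, normalised to wild-type barcodes and log-transformed.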

Data set [2] shares this test system. As to the kind of experiment: relative integration efficiency (T-LR orientation) vs wild-type transposon end (log2 (normalized fold change)); transposon end mutated: left end; higher = more efficient transposition. In short, it runs like this: as §1

Take “AATGTTGTTGATGCAACCATAAAGTGATATTTAATAATTATTTATAATCAGCAACTTAACCACAAAACAACCATATATTGATATCTCACAACCACCAACGCCTGGTCGCGGGGGTGTCCGATCTGATTTCAGCAAAACTACTGCAGTAAGAA”: the “relative integration efficiency (log2)” value was -2.63 ± 0.74 in data set [1] and -0.813 ± 1.4 in data set [2].

Consider “AATGTTGTTGATGCAACCATAAAGTGATATTTAATAATTATTTATAATCAGCAACTTAACCACAAAACAACCATATATTGATATCTCACAACCATAAGTTGATATTTTTGTGAATCGAGTATTTCAGCAAAACTACTGCAGTAAGAAAGTTA”, for which the “relative integration efficiency (log2)” value was -3.63 ± 0.88 in data set [1] and -1.81 ± 1.5 in data set [2].

Turning to “AATGTTGTTGATGCAACCATAAAGTGATATTTAATAATTATTTATAATCAGCAACTTAACCACAAAACAACCATATATTGATATCTCACACAACCATAAGTTGATATTTTTGTGAATCGAGTATTTCAGCAAAACTACTGCAGTAAGAAAGT”, the results for the “relative integration efficiency (log2)” value in data set [1] and in data set [2] were -3.26 ± 0.94 and -1.4 ± 0.91, respectively.

“AATGTTGTTGATGCAACCATAAAGTGATATTTAATAATTATTTATAATCAGCAACTTAACCACAAAACAACCATATATTGATATCTCACACCCACCAACGCCTGGTCGCGGGGGTGTCCGATCTGATTTCAGCAAAACTACTGCAGTAAGAA”: the “relative integration efficiency (log2)” value in data set [1] is -2.48 ± 0.87; in data set [2], -1.23 ± 1.7.

“AATGTTGTTGATGCAACCATAAAGTGATATTTAATAATTATTTATAATCAGCAACTTAACCACAAAACAACCATATATTGATATCTCACCAACCATAAGTTGATATTTTTGTGAATCGAGTATTTCAGCAAAACTACTGCAGTAAGAAAGTT”: the “relative integration efficiency (log2)” value was -3.37 ± 0.94 in data set [1] and -2.01 ± 2.7 in data set [2].

On to “AATGTTGTTGATGCAACCATAAAGTGATATTTAATAATTATTTATAATCAGCAACTTAACCACAAAACAACCATATATTGATATCTCACCCCCACCAACGCCTGGTCGCGGGGGTGTCCGATCTGATTTCAGCAAAACTACTGCAGTAAGAA”, for which the “relative integration efficiency (log2)” value in data set [1] is -2.66 ± 0.95; in data set [2], -1.5 ± 1.8.

For “AATGTTGTTGATGCAACCATAAAGTGATATTTAATAATTATTTATAATCAGCAACTTAACCACAAAACAACCATATATTGATATCTCCAACCATAAGTTGATATTTTTGTGAATCGAGTATTTCAGCAAAACTACTGCAGTAAGAAAGTTAC”, the “relative integration efficiency (log2)” value in data set [1] is -3.71 ± 1.5; in data set [2] it was -1.44 ± 1.2.

In the case of “AATGTTGTTGATGCAACCATAAAGTGATATTTAATAATTATTTATAATCAGCAACTTAACCACAAAACAACCATATATTGATATCTCCACCCCACCAACGCCTGGTCGCGGGGGTGTCCGATCTGATTTCAGCAAAACTACTGCAGTAAGAA”, the “relative integration efficiency (log2)” value in data set [1] is -2.45 ± 0.85; in data set [2], -0.685 ± 1.1.

In the case of “AATGTTGTTGATGCAACCATAAAGTGATATTTAATAATTATTTATAATCAGCAACTTAACCACAAAACAACCATATATTGATCGAGACACCCCACCAACGCCTGGTCGCGGGGGTGTCCGATCTGATTTCAGCAAAACTACTGCAGTAAGAA”, the “relative integration efficiency (log2)” value in data set [1] is -3.99 ± 1.6; in data set [2], -2.14 ± 1.3.

For “AATGTTGTTGATGCAACCATAAAGTGATATTTAATAATTATTTATAATCAGCAACTTAACCACAAAACAACCATATATTGCGCGAGACACCCCACCAACGCCTGGTCGCGGGGGTGTCCGATCTGATTTCAGCAAAACTACTGCAGTAAGAA”, the results for the “relative integration efficiency (log2)” value in data set [1] and in data set [2] were -4.62 ± 1.1 and -2.63 ± 0.53, respectively.

Take “AATGTTGTTGATGCAACCATAAAGTGATATTTAATAATTATTTATAATCAGCAACTTAACCACAAAACAACCATATATTTCGCGAGACACCCCACCAACGCCTGGTCGCGGGGGTGTCCGATCTGATTTCAGCAAAACTACTGCAGTAAGAA”: the figures for the “relative integration efficiency (log2)” value in data set [1] and in data set [2] were -6 ± 1.3 and -4.98 ± 3.6, respectively.

Turning to “AATGTTGTTGATGCAACCATAAAGTGATATTTAATAATTATTTATAATCAGCAACTTAACCACAAAACAACCATCGCGGTCGCGAGACACCCCACCAACGCCTGGTCGCGGGGGTGTCCGATCTGATTTCAGCAAAACTACTGCAGTAAGAA”, the “relative integration efficiency (log2)” value in data set [1] is -7.35 ± 1.8; in data set [2] it was -3.94 ± 2.1.

For “AATGTTGTTGATGCAACCATAAAGTGATATTTAATAATTATTTATAATCAGCAACTTAACCACAAAACAACCCGCGCGGTCGCGAGACACCCCACCAACGCCTGGTCGCGGGGGTGTCCGATCTGATTTCAGCAAAACTACTGCAGTAAGAA”, the “relative integration efficiency (log2)” value in data set [1] is -7.91 ± 1.9; in data set [2] it was -4.43 ± 0.75.

For “AATGTTGTTGATGCAACCATAAAGTGATATTTAATAATTATTTATAATCAGCAACTTAACCACAAAACACAACGCGCGGTCGCGAGACACCCCACCAACGCCTGGTCGCGGGGGTGTCCGATCTGATTTCAGCAAAACTACTGCAGTAAGAA”, the “relative integration efficiency (log2)” value in data set [1] was -6.99 ± 3; in data set [2] it was -4.26 ± 0.12.

Take “AATGTTGTTGATGCAACCATAAAGTGATATTTAATAATTATTTATAATCAGCAACTTAACCACAAAACACCCATAAATTGATAATTAACAAAAGTTGGTATTCAACTATAAAATGTGAATCGAGTATTTCAGCAAAACTACTGCAGTAAGAA”: the results for the “relative integration efficiency (log2)” value in data set [1] and in data set [2] were -2.72 ± 0.87 and -1.11 ± 0.65, respectively.

With “AATGTTGTTGATGCAACCATAAAGTGATATTTAATAATTATTTATAATCAGCAACTTAACCACAAAACACCCATAAATTGATATTGCACAAAAGTTGGTATTCAACTATAAAATGTGAATCGAGTATTTCAGCAAAACTACTGCAGTAAGAA”, the “relative integration efficiency (log2)” value is -3.12 ± 1 in data set [1] and -0.929 ± 1.3 in data set [2].

For “AATGTTGTTGATGCAACCATAAAGTGATATTTAATAATTATTTATAATCAGCAACTTAACCACAAAACCCAACGCGCGGTCGCGAGACACCCCACCAACGCCTGGTCGCGGGGGTGTCCGATCTGATTTCAGCAAAACTACTGCAGTAAGAA”, the results for the “relative integration efficiency (log2)” value in data set [1] and in data set [2] were -7.08 ± 1.4 and -2.9 ± 0.65, respectively.

For “AATGTTGTTGATGCAACCATAAAGTGATATTTAATAATTATTTATAATCAGCAACTTAACCACAAAAGTTGGTATATAACTATAGAGACAAAACAACCATAAGTTGATATTTTTGTGAATCGAGTATTTCAGCAAAACTACTGCAGTAAGAA”, the entries for the “relative integration efficiency (log2)” value in data set [1] and in data set [2] were -2.65 ± 1.1 and -1.8 ± 1.5, respectively.

Turning to “AATGTTGTTGATGCAACCATAAAGTGATATTTAATAATTATTTATAATCAGCAACTTAACCACAAAATGTGAATCGACAACCATATATTGATATCTCACAAAACAACCATAAGTTGATATTTTGTATTTCAGCAAAACTACTGCAGTAAGAA”, the “relative integration efficiency (log2)” value was -2.45 ± 0.87 in data set [1] and -3.12 ± 0.12 in data set [2].

Regarding “AATGTTGTTGATGCAACCATAAAGTGATATTTAATAATTATTTATAATCAGCAACTTAACCACAAAATGTGAATCGAGTATTCAACCATATATTGATATCTCACAAAACAACCATAAGTTGATATTTTTCAGCAAAACTACTGCAGTAAGAA”, the “relative integration efficiency (log2)” value in data set [1] is -4 ± 1.4; in data set [2], -2.89 ± 0.26.

On to “AATGTTGTTGATGCAACCATAAAGTGATATTTAATAATTATTTATAATCAGCAACTTAACCACAAAATGTGAATCGAGTATTTCAGCAAAACCAACCATATATTGATATCTCACAAAACAACCATAAGTTGATATTTTTACTGCAGTAAGAA”, for which the entries for the “relative integration efficiency (log2)” value in data set [1] and in data set [2] were -4.28 ± 1 and -3.73 ± 1.1, respectively.

For “AATGTTGTTGATGCAACCATAAAGTGATATTTAATAATTATTTATAATCAGCAACTTAACCACAAAATGTGAATCGAGTATTTCAGCAAAACTACTGCAGTAAGAATCAACCATATATTGATATCTCACAAAACAACCATAAGTTGATATTT”, the “relative integration efficiency (log2)” value was -5.36 ± 1.6 in data set [1] and -5.03 ± 3.6 in data set [2].

With “AATGTTGTTGATGCAACCATAAAGTGATATTTAATAATTATTTATAATCAGCAACTTAACCACAAAATGTGAATCGAGTATTTCAGCAAAACTACTGCAGTACAACCATATATTGATATCTCACAAAACAACCATAAGTTGATATTTTAGAA”, the “relative integration efficiency (log2)” value in data set [1] is -6.01 ± 0.9; in data set [2], -3.82 ± 1.3.

Take “AATGTTGTTGATGCAACCATAAAGTGATATTTAATAATTATTTATAATCAGCAACTTAACCACAAAATGTGACAACCATATATTGATATCTCACAAAACAACCATAAGTTGATATTTTATCGAGTATTTCAGCAAAACTACTGCAGTAAGAA”: the “relative integration efficiency (log2)” value was -4.95 ± 0.52 in data set [1] and -4.36 ± 1.1 in data set [2].

In the case of “AATGTTGTTGATGCAACCATAAAGTGATATTTAATAATTATTTATAATCAGCAACTTAACCACAAACAACCATATATTGATATCTCAACAAAACAACCATAAGTTGATATTTTTGTGAATCGAGTATTTCAGCAAAACTACTGCAGTAAGAA”, the entries for the “relative integration efficiency (log2)” value in data set [1] and in data set [2] were -1.37 ± 0.49 and -1.17 ± 1.5, respectively.

For the sequence “AATGTTGTTGATGCAACCATAAAGTGATATTTAATAATTATTTATAATCAGCAACTTAACCACAAACAACCATATATTGATATCTCACAAAACAACCATAAGTTGATATTTTATGTGAATCGAGTATTTCAGCAAAACTACTGCAGTAAGAA”, the “relative integration efficiency (log2)” value in data set [1] was -0.754 ± 0.26; in data set [2], -1.02 ± 0.3.

As to “AATGTTGTTGATGCAACCATAAAGTGATATTTAATAATTATTTATAATCAGCAACTTAACCACAAACAACCATATATTGATATCTCACAAAACAACCATAAGTTGATATTTTTGTGAATCGAGTATTTCAGCAAAACTACTGCAGTAAGAAA”, the figures for the “relative integration efficiency (log2)” value in data set [1] and in data set [2] were -0.248 ± 0.24 and -0.356 ± 0.049, respectively.

As for “AATGTTGTTGATGCAACCATAAAGTGATATTTAATAATTATTTATAATCAGCAACTTAACCACAACAACCATATATTGATATCTCACAAAACAACCATAAGTTGATATTTTTGTGAATCGAGTATTTCAGCAAAACTACTGCAGTAAGAAAG”, the “relative integration efficiency (log2)” value was -2.31 ± 0.76 in data set [1] and -2.53 ± 1.4 in data set [2].

As for “AATGTTGTTGATGCAACCATAAAGTGATATTTAATAATTATTTATAATCAGCAACTTAACCACAACCACCAACGCGCGGTCGCGAGACACCCCACCAACGCCTGGTCGCGGGGGTGTCCGATCTGATTTCAGCAAAACTACTGCAGTAAGAA”, the figures for the “relative integration efficiency (log2)” value in data set [1] and in data set [2] were -5.83 ± 1.9 and -4.35 ± 3.3, respectively.
